The values below are quoted from earlier work in patent publication US20090023631A1, “Composition and Method of Use for Soft Tissue Augmentation/Drug Delivery” (priority 2007, published 2009).

The data set has as its system stage III and IV ulcers. Particulars: multiple studies.

B1: recombinant human PDGF-BB: platelet-derived growth factor, commercial product available as recombinant human PDGF-BB (protein, UniProt P01127 82-190, looked up)
Platelet-derived growth …: SLGSLTIAEPAMIAECKTRTEVFEISRRLIDRTNANFLVWPPCVEVQRCSGCCNNRNVQCRPTQVQLRPVQVRKIEIVRKKPIFKKATVTLEDHLACKCETVAAARPVT
modifications: BB homodimer
On to B1, for which the healing time result is “reduce healing time” and the “incidence of complete wound healing” value was “improve the incidence of complete wound healing”.
